Data from the RNAGym collection of RNA variant scans (doi:10.1073/pnas.2313332121).
Variants at the floor of the assay were thinned out.

B1: TPR 5TU (parent)
chain: GGAUCUUCUCGAUCUAACAAAAAAGACAAAUCUGCCACAAAGCUUGAGAGCAUCUUCGGAUGCAGAGGCGGCAGCCUUCGGUGGCGCGAUAGCGCCAACGUUCUCAACUAUGACACGCAAAACGCGUGCUCCGUUGAAUGGAGUUUAUCAUG

Variants of: B1
Experiment: polymerase ribozyme fitness, log enrichment relative to wild type (log ratio); higher = more active; in vitro selection for triplet polymerase activity
How it was run: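 To select mutant libraries of each subunit of a heterodimeric triplet polymerase ribozyme, built by PCR and transcribed, each was annealed with a biotinylated primer, partner subunit and triplets, then incubated frozen at −7 °C. Extended constructs were gel-excised, captured on streptavidin beads and amplified by RT-PCR, in one round carried out in triplicate. Illumina sequencing of input and output libraries kept genotypes with ≥10 input reads and ≥1 read per output. Fitness is the base-2 logarithm of genotype enrichment relative to wild-type enrichment, from inverse-variance-weighted replicate averages.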

| Variant | polymerase ribozyme fitness (log ratio) |
| --- | --- |
| C36U G59C C95A | -1.64 |
| C35U G59A G83U A98C G128C | -3.94 |
| A37C A41C U53G G59A G84A C103A U145A | ≤ -4.2 |
| C35U G88A A115C A119G | -3.86 |
| C36U C95G C108A | -3.89 |
| A37C G83U | -0.441 |
| A37C C93U | -1.64 |
| A37C C93A | -2.8 |
| A37C G86A C103A A120U | ≤ -4.2 |
| A37C A40U G83A C93G A142G | ≤ -4.2 |
| C36G U56A G94U A97C A120U C125U | ≤ -4.2 |
| C35U U127G | -4.01 |
| C36A C85U A89U C96G | ≤ -4.2 |
| C36U A52G U61A C95A A122U U144A | ≤ -4.2 |
| C35U C93A C103G | ≤ -4.2 |
| C36U A52U C75G G88C C105A C114G A115G | ≤ -4.2 |
| A37C C57A | 0.0979 |
| C36A G92A U101A | ≤ -4.2 |
| C36A G46A C96U U148A | ≤ -4.2 |
| C36A A66C | ≤ -4.2 |
| C36U G94A | -3.52 |

| Variant | polymerase ribozyme fitness (log ratio) |
| --- | --- |
| C35U U45A G83C C85G A97G G141C | ≤ -4.2 |
| C36A G59A U144G | -3.49 |
| A37C A64C G71A C85A G126C | ≤ -4.2 |
| A37G G74U C87G A115C | ≤ -4.2 |
| C35U G136A G143U | -3.68 |
| C36U C69G A73G C87A G100U G112C G141C | ≤ -4.2 |
| A37C C54U A60C U61G C96U C99A G112A A115G | ≤ -4.2 |
| A37C C95G | -2.69 |
| A37C C95U | -2.04 |
| C35U U56A U61A C63U A64G | ≤ -4.2 |
| C36G C54U G92A A110G G143A | ≤ -4.2 |
| A37G G50C | -3.93 |
| A37G G42C G88U A115G | ≤ -4.2 |
| A37G U56A G84A C85U G133C | -4.13 |
| C35U C75A G86A A107G G140U | ≤ -4.2 |
| C35U G58C U90G U104A G126A U135A U145G | ≤ -4.2 |
| C36U C99U U145A | -1.47 |
| C35U G86U C95G | -3.9 |
| C36U C95U | -1.98 |
| C36U A39U | -2.71 |
| C35U G140C | -4.13 |

| Variant | polymerase ribozyme fitness (log ratio) |
| --- | --- |
| C36A C57U A66C C99A | ≤ -4.2 |
| C36A U56G G141U | ≤ -4.2 |
| C36A A98U A107U C131A U146G | ≤ -4.2 |
| A37C G59A G81A C96A | -2.74 |
| A37G A52C A97C | -3.67 |
| C36A U45C C95U C114U A119U | ≤ -4.2 |
| A37C A52C G84A | -3.24 |
| A37C A97G U151A | ≤ -4.2 |
| C36U A41G C95A A122G | -0.35 |
| C36U A40G C43G U55A A91C G126A G141U | ≤ -4.2 |
| C36G U145A | -3.88 |
| C35U C96U | -0.126 |
| C35U C96G | -0.818 |
| A37C U144A | -0.958 |
| A37G C95A U127G | -4.15 |
| C36U C54U C87U C96G U146G G152A | ≤ -4.2 |
| A37C A64U A66G C85A A107G | ≤ -4.2 |
| C35U C75G U127C | ≤ -4.2 |
| C35U G124U | -1.25 |
| C36A A64U A107U U139A G140C | ≤ -4.2 |
| C36U U145A G152A | -3 |

| Variant | polymerase ribozyme fitness (log ratio) |
| --- | --- |
| A37C C57U G86A C95G C99G C131U | ≤ -4.2 |
| C36G C87G A91C A98U C114U A119U A122G | ≤ -4.2 |
| A37C C96G U101G A150C U151A | ≤ -4.2 |
| A37C C95A A97C A121U | -2.71 |
| C36U G46U G86U C105A G124U | -3.12 |
| C36A U78A | ≤ -4.2 |
| A37G A91C A138C G140U | ≤ -4.2 |
| A37C A49C A91G G94A C96U A106G | ≤ -4.2 |
| A37C G62U G86U G100C A107G | ≤ -4.2 |
| C36U C85U G133A U135C | -4.18 |
| C35U C51U C85A | -3.1 |
| C35U C54A G84A U146C | -1 |
| C36A U55A A64U C96A C118G | ≤ -4.2 |
| C36U C54G A66C G84U C95A U101G | ≤ -4.2 |
| C35U C118U | -0.573 |
| A37C A47U G58A U61G A91G A107C A113G A138U | ≤ -4.2 |
| C35U G117U | 0.973 |
| A37C A52U C96A | -2.87 |
| C35U C76U C99U | -1.5 |
| C36A G84U C114A A120U G143U | -4.19 |
